B1: APBB1IP (parent)
chain: FNYSVGFKDLNESLNALEDQDLDA

Variants of: B1
Assay: protein stability index of a GFP-peptide fusion (GPS, HEK-293T) (PSI 1-6); higher = more stable
Conditions: c terminus: a fixed tail appended
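Note: lentivirally expressed fusions sorted by FACS into six bins by GFP to DsRed ratio, PSI derived from sequencing read proportions per bin multiplied by bin number.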

Point of comparison: FNYSVGFKDLNESLNALEDIDLDA, protein stability index 3.97. Against it:
- FNYSVGFKDLNESLNALEDQELDA — higher, 4.25
- FNYSVGFKDLNESLNALEDQLLDA — lower, 2.8
- FNYSVGFKDLNESLNALEDQPLDA — lower, 3.77
- FNYSVGFKDLNESLNALEDQGLDA — lower, 3.94
- FNYSVGFKDLNESLNALEDQNLDA — higher, 4.07
- FNYSVGFKDLNESLNALEDQQLDA — lower, 3.75
- FNYSVGFKDLNESLNALEDQILDA — lower, 2.81
- FNYSVGFKDLNESLNALEDQKLDA — higher, 4.19
- FNYSVGFKDLNESLNALEDQVLDA — lower, 3.38
- FNYSVGFKDLNESLNALEDQALDA — lower, 3.69
- FNYSVGFKDLNESLNALEDQMLDA — lower, 3.83
- FNYSVGFKDLNESLNALEDQCLDA — lower, 3.57
- FNYSVGFKDLNESLNALEDQFLDA — lower, 2.34
- FNYSVGFKDLNESLNALEDQRLDA — lower, 3
- FNYSVGFKDLNESLNALEDQTLDA — higher, 4.14
- FNYSVGFKDLNESLNALEDQSLDA — higher, 4.33
- FNYSVGFKDLNESLNALEDQWLDA — lower, 2.43
- FNYSVGFKDLNESLNALEDQHLDA — lower, 3.33
- FNYSVGFKDLNESLNALEDQYLDA — lower, 2.38
- FNYSVGFKDLNESLNILEDQDLDA — higher, 4
- FNYSVGFKDLNESLNELEDQDLDA — higher, 5.02
- FNYSVGFKDLNESLNWLEDQDLDA — lower, 3.41
- FNYSVGFKDLNESLNMLEDQDLDA — higher, 4.1
- FNYSVGFKDLNESLNKLEDQDLDA — higher, 4.36
- FNYSVGFKDLNESLNHLEDQDLDA — higher, 4.37
- FNYSVGFKDLNESLNTLEDQDLDA — higher, 4.57
- FNYSVGFKDLNESLNDLEDQDLDA — higher, 4.6
- FNYSVGFKDLNESLNPLEDQDLDA — higher, 4.33
- FNYSVGFKDLNESLNLLEDQDLDA — higher, 4.04
- FNYSVGFKDLNESLNNLEDQDLDA — higher, 4.51
- FNYSVGFKDLNESLNSLEDQDLDA — higher, 4.19
- FNYSVGFKDLNESLNVLEDQDLDA — lower, 3.47
- FNYSVGFKDLNESLNCLEDQDLDA — higher, 4.47
- FNYSVGFKDLNESLNFLEDQDLDA — lower, 3.92
- FNYSVGFKDLNESLNRLEDQDLDA — higher, 4.14
- FNYSVGFKDLNESLNQLEDQDLDA — higher, 4.52
- FNYSVGFKDLNESLNGLEDQDLDA — lower, 3.94
- FNYSVGFKDLNESLNYLEDQDLDA — lower, 3.93
- FNYSVGFKDLNESANALEDQDLDA — higher, 4.71
- FNYSVGFKDLNESCNALEDQDLDA — lower, 3.86
- FNYSVGFKDLNESPNALEDQDLDA — higher, 4.76
- FNYSVGFKDLNESKNALEDQDLDA — higher, 4.48
- FNYSVGFKDLNESVNALEDQDLDA — higher, 4.5
- FNYSVGFKDLNESYNALEDQDLDA — higher, 4.49
- FNYSVGFKDLNESDNALEDQDLDA — higher, 4.89
- FNYSVGFKDLNESSNALEDQDLDA — higher, 4.47
- FNYSVGFKDLNESQNALEDQDLDA — higher, 4.88
- FNYSVGFKDLNESRNALEDQDLDA — higher, 4.57
- FNYSVGFKDLNESMNALEDQDLDA — higher, 4.61
- FNYSVGFKDLNESTNALEDQDLDA — higher, 4.98
- FNYSVGFKDLNESGNALEDQDLDA — higher, 4.9
- FNYSVGFKDLNESINALEDQDLDA — higher, 4.71
- FNYSVGFKDLNESENALEDQDLDA — higher, 4.51
- FNYSVGFKDLNESNNALEDQDLDA — higher, 5.06
- FNYSVGFKDLNESHNALEDQDLDA — higher, 5.1
- FNYSVGFKDLNESFNALEDQDLDA — higher, 4
- FNYSVGFKDLNESWNALEDQDLDA — higher, 4.05
- FNYSVGFKDLNESLNALEDHDLDA — higher, 4.42
- FNYSVGFKDLNESLNALEDEDLDA — higher, 4.69
- FNYSVGFKDLNESLNALEDADLDA — higher, 4.42
- FNYSVGFKDLNESLNALEDKDLDA — higher, 4.2
- FNYSVGFKDLNESLNALEDGDLDA — higher, 4.57
- FNYSVGFKDLNESLNALEDSDLDA — the same, 3.97
- FNYSVGFKDLNESLNALEDDDLDA — higher, 4.4
- FNYSVGFKDLNESLNALEDYDLDA — lower, 3.85
- FNYSVGFKDLNESLNALEDLDLDA — lower, 3.88
- FNYSVGFKDLNESLNALEDRDLDA — lower, 3.21
- FNYSVGFKDLNESLNALEDCDLDA — higher, 4.02
- FNYSVGFKDLNESLNALEDTDLDA — higher, 4.84
- FNYSVGFKDLNESLNALEDPDLDA — the same, 3.97
- FNYSVGFKDLNESLNALEDWDLDA — lower, 3.7
- FNYSVGFKDLNESLNALEDMDLDA — lower, 3.7
- FNYSVGFKDLNESLNALEDFDLDA — lower, 3.57
- FNYSVGFKDLNESLNALEDVDLDA — higher, 4
- FNYSVGFKDLNESLNALEDNDLDA — higher, 4.53
- FNYSVGFKDLNEYLNALEDQDLDA — lower, 3.54
- FNYSVGFKDLNESLNALDDQDLDA — higher, 4.34
- FNYSVGFKDLNESLNALPDQDLDA — higher, 4.51
- FNYSVGFKDLNESLNALIDQDLDA — lower, 2.67
- FNYSVGFKDLNESLNALNDQDLDA — higher, 4.06
- FNYSVGFKDLNESLNALYDQDLDA — lower, 2.95
- FNYSVGFKDLNESLNALADQDLDA — lower, 3.66
- FNYSVGFKDLNESLNALWDQDLDA — lower, 2.52
- FNYSVGFKDLNESLNALGDQDLDA — lower, 3.96
- FNYSVGFKDLNESLNALCDQDLDA — lower, 3.56
- FNYSVGFKDLNESLNALKDQDLDA — lower, 3.82
- FNYSVGFKDLNESLNALLDQDLDA — lower, 3.24
- FNYSVGFKDLNESLNALRDQDLDA — lower, 2.87
- FNYSVGFKDLNESLNALSDQDLDA — lower, 3.71
- FNYSVGFKDLNESLNALFDQDLDA — lower, 2.79
- FNYSVGFKDLNESLNALMDQDLDA — lower, 3.59
- FNYSVGFKDLNESLNALQDQDLDA — higher, 3.98
- FNYSVGFKDLNESLNALVDQDLDA — lower, 3.35
- FNYSVGFKDLNESLNALHDQDLDA — lower, 3.92
- FNYSVGFKDLNESLNALTDQDLDA — lower, 3.44
- FNYSVGFKDLNESLNALEHQDLDA — lower, 3.7
- FNYSVGFKDLNESLNALESQDLDA — lower, 3.73
- FNYSVGFKDLNESLNALEAQDLDA — the same, 3.97
- FNYSVGFKDLNESLNALEGQDLDA — higher, 4.36
- FNYSVGFKDLNESLNALEIQDLDA — lower, 3.86
- FNYSVGFKDLNESLNALEYQDLDA — lower, 3.93
- FNYSVGFKDLNESLNALEFQDLDA — lower, 3
- FNYSVGFKDLNESLNALEPQDLDA — lower, 3.65
- FNYSVGFKDLNESLNALEWQDLDA — lower, 3.42
- FNYSVGFKDLNESLNALELQDLDA — lower, 3.53
- FNYSVGFKDLNESLNALEVQDLDA — lower, 3.56
- FNYSVGFKDLNESLNALECQDLDA — higher, 4.06
- FNYSVGFKDLNESLNALEQQDLDA — lower, 3.83
- FNYSVGFKDLNESLNALETQDLDA — lower, 3.86
- FNYSVGFKDLNESLNALENQDLDA — higher, 4.04
- FNYSVGFKDLNESLNALEKQDLDA — higher, 4.5
- FNYSVGFKDLNESLNALEMQDLDA — lower, 3.05
- FNYSVGFKDLNESLNALEEQDLDA — higher, 4.53
- FNYSVGFKDLNESLNALERQDLDA — lower, 3.67
- FNYSVGFKDLNESLNALEDQDRDA — higher, 4.5
- FNYSVGFKDLNESLNALEDQDKDA — higher, 4.86
- FNYSVGFKDLNESLNALEDQDVDA — higher, 4.6
- FNYSVGFKDLNESLNALEDQDMDA — higher, 4.72
- FNYSVGFKDLNESLNALEDQDTDA — higher, 4.82
- FNYSVGFKDLNESLNALEDQDSDA — higher, 4.76
- FNYSVGFKDLNESLNALEDQDADA — higher, 5.06
- FNYSVGFKDLNESLNALEDQDYDA — higher, 4.37
- FNYSVGFKDLNESLNALEDQDQDA — higher, 4.67
- FNYSVGFKDLNESLNALEDQDEDA — higher, 5.45
- FNYSVGFKDLNESLNALEDQDHDA — higher, 4.96
- FNYSVGFKDLNESLNALEDQDNDA — higher, 4.79
- FNYSVGFKDLNESLNALEDQDCDA — higher, 4.62
- FNYSVGFKDLNESLNALEDQDIDA — higher, 4.74
- FNYSVGFKDLNESLNALEDQDGDA — higher, 5.28
- FNYSVGFKDLNESLNALEDQDPDA — higher, 4.92
- FNYSVGFKDLNESLNALEDQDDDA — higher, 4.68
- FNYSVGFKDLNESLNALEDQDWDA — lower, 3.86
- FNYSVGFKDLNESLNALEDQDFDA — higher, 4.49
- FNYSVGFKDLNESLNATEDQDLDA — higher, 5.18
- FNYSVGFKDLNESLNAPEDQDLDA — higher, 4.65
- FNYSVGFKDLNESLNADEDQDLDA — higher, 5.25
- FNYSVGFKDLNESLNANEDQDLDA — higher, 5.02
- FNYSVGFKDLNESLNAVEDQDLDA — higher, 4.68
- FNYSVGFKDLNESLNAHEDQDLDA — higher, 4.18
- FNYSVGFKDLNESLNAEEDQDLDA — higher, 5.04
- FNYSVGFKDLNESLNAAEDQDLDA — higher, 4.63
- FNYSVGFKDLNESLNAGEDQDLDA — higher, 4.51
- FNYSVGFKDLNESLNAYEDQDLDA — lower, 3.96
- FNYSVGFKDLNESLNAMEDQDLDA — higher, 4.17
- FNYSVGFKDLNESLNAFEDQDLDA — higher, 4.43
- FNYSVGFKDLNESLNAWEDQDLDA — lower, 3.85
- FNYSVGFKDLNESLNAIEDQDLDA — higher, 4.68
- FNYSVGFKDLNESLNAKEDQDLDA — higher, 4.48
- FNYSVGFKDLNESLNACEDQDLDA — higher, 4.48
- FNYSVGFKDLNESLNAQEDQDLDA — higher, 4.88
- FNYSVGFKDLNESLNAREDQDLDA — higher, 5.01
- FNYSVGFKDLNESLNASEDQDLDA — higher, 4.78
- FNYSVGFKDLNESLTALEDQDLDA — higher, 4.78
- FNYSVGFKDLNESLFALEDQDLDA — lower, 3.72
- FNYSVGFKDLNESLLALEDQDLDA — higher, 4.04
- FNYSVGFKDLNESLKALEDQDLDA — higher, 4.77
- FNYSVGFKDLNESLEALEDQDLDA — higher, 4.14
- FNYSVGFKDLNESLDALEDQDLDA — higher, 4.77
- FNYSVGFKDLNESLQALEDQDLDA — higher, 4.28
- FNYSVGFKDLNESLVALEDQDLDA — higher, 4.7
- FNYSVGFKDLNESLPALEDQDLDA — higher, 5
- FNYSVGFKDLNESLCALEDQDLDA — higher, 4.32
- FNYSVGFKDLNESLHALEDQDLDA — higher, 4.08
- FNYSVGFKDLNESLGALEDQDLDA — higher, 4.78
- FNYSVGFKDLNESLMALEDQDLDA — higher, 4.39
- FNYSVGFKDLNESLYALEDQDLDA — lower, 3.62
- FNYSVGFKDLNESLRALEDQDLDA — lower, 3.64
- FNYSVGFKDLNESLAALEDQDLDA — higher, 4.44
- FNYSVGFKDLNESLWALEDQDLDA — lower, 2.92
- FNYSVGFKDLNESLIALEDQDLDA — higher, 4.01
- FNYSVGFKDLNESLSALEDQDLDA — higher, 4.15
- FNYSVGFKDLNESLNALEDQDLEA — higher, 4.22
- FNYSVGFKDLNESLNALEDQDLRA — lower, 3.81
- FNYSVGFKDLNESLNALEDQDLHA — lower, 3.69
- FNYSVGFKDLNESLNALEDQDLPA — higher, 4.38
- FNYSVGFKDLNESLNALEDQDLAA — lower, 3.79
- FNYSVGFKDLNESLNALEDQDLKA — lower, 3.87
- FNYSVGFKDLNESLNALEDQDLQA — higher, 4.22
- FNYSVGFKDLNESLNALEDQDLCA — lower, 3.33
- FNYSVGFKDLNESLNALEDQDLGA — higher, 4.41
- FNYSVGFKDLNESLNALEDQDLNA — higher, 4.31
- FNYSVGFKDLNESLNALEDQDLFA — lower, 2.44
- FNYSVGFKDLNESLNALEDQDLIA — lower, 3.56
- FNYSVGFKDLNESLNALEDQDLMA — lower, 2.86
- FNYSVGFKDLNESLNALEDQDLSA — higher, 4.02
- FNYSVGFKDLNESLNALEDQDLTA — lower, 3.85
- FNYSVGFKDLNESLNALEDQDLLA — lower, 3.14

From the supplement of paper PMC10567573
